Experiment [1] deals with T1, recombinant human ATX beta isoform with N-terminal purification tag (human, UniProt Q13822 49-863). As to the kind of experiment: cell-based or functional assay.
Experiment [2] has as its target recombinant mouse ATX beta isoform (R&D Systems, Cat No. 6187-EN-010) (mouse, UniProt Q9R1E6 36-862). As to the kind of experiment: cell-based or functional assay.
Experiment [3] deals with T1, recombinant human ATX beta isoform with …. Description: SPR Biacore 3000, His-ATX beta captured on anti-Penta-His, mAb as analyte, bivalent analyte model. The protocol:
(§1) Affinity measurements using surface plasmon resonance (SPR) were performed using a Biacore 3000 optical biosensor (Biacore) for ATXB3, ATXB6, ATXB8, ATXB9, ATXB13, and ATXB14. A biosensor surface was prepared by coupling anti-Penta-His antibody (Qiagen, Cat No. 34660) to the carboxymethylated dextran surface of a CM-5 chip (Biacore, Cat No. BR-1000-14) using the manufacturer instructions for amine-coupling chemistry. Approximately 15,000 RU (response units) of anti-Penta-His antibody were immobilized in each of four flow cells. The kinetic experiments were performed at 25° C. in running buffer (PBS+0.01% P20+100 ug/ml BSA). Serial dilutions of anti-ATX mAbs (ATXB3, B6, B8, B9, B13, B14) from 900 nM to 0.412 nM were prepared in running buffer. About 80 RU of human ATX beta-His tagged proteins were captured on flow cell 2 of the sensor chip. Flow cell 1 was used as reference surface. Capture of ATX was followed by five minutes injection (association phase) of anti-ATX mAbs at 50 uL/min, followed by 15 minutes of buffer flow (dissociation phase). The chip surface was regenerated by 15 seconds injection of 100 mM H₃PO₄ (Sigma, Cat No. 7961) at 50 uL/min. The collected data were processed using BIAevaluation software, version 3.2 (Biacore). First, double reference subtraction of the data was performed by subtracting the curves generated by buffer injection from the reference-subtracted curves for analyte injections. Then kinetic analysis of the data was performed using the Bivalent Analyte binding model with global fitting. Kd1 (Kₒₙ) was calculated as intrinsic KD with minimum avidity. The result for each mAb was reported in the format of Ka1 (On-rate, Kₒₙ), Kd1 (Off-rate, Koff) and KD1 (Equilibrium dissociation constant). Affinity measurements for ATXB18 were performed on a Proteon XPR36 system (Bio-Rad), using a protocol similar to the one used on the Biacore platform.
The five mAbs with the lowest IC50 values in the inhibition assays as well as ATXB3, a non-neutralizing antibody, were tested for their affinity to the human ATX-beta isoform, as measured by surface plasmon resonance. Due to nonspecific binding of the ATX antigen to the chip surface, these experiments had to be conducted in the reverse format, with ATX immobilized on the chip surface (ligand) and our antibodies in solution (analyte).

The target is the same in experiment [4]. As to the kind of experiment: SPR ProteOn XPR36, protocol similar to the Biacore one, bivalent analyte model. The protocol:
as §1, with “Affinity measurements for ATXB18 were performed on a Proteon XPR36 system (Bio-Rad), using a protocol similar to the one used on the Biacore platform.” left out
The five mAbs with the lowest IC50 values in the inhibition assays as well as ATXB3, a non-neutralizing antibody, were tested for their affinity to the human ATX-beta isoform, as measured by surface plasmon resonance. […]
A general note: SPR reads the build-up and loss of mass on a sensor chip optically.

B1: mAb ATXB6 (antibody, V domains shown)
VH: QVQLVQSGAEVKKPGSSVKVSCKASGGTFSSYAISWVRQAPGQGLEWMGGIIPIFGTANYAQKFQGRVTITADESTSTAYMELSSLRSEDTAVYYCARDLYIYGDLDYWGQGTLVTVSS
VL: DIQMTQSPSSLSASVGDRVTITCRASQSIGGWLNWYQQKPGKAPKLLIYTASSLQSGVPSRFSGSGSGTDFTLTISSLQPEDFATYYCQQSYTYPITFGQGTKVEIK
notes: Human IgG1/kappa from Fab F73
As for B1, the “IC50, inhibition of LPC hydrolysis by human ATX beta (1.5 nM), coupled choline oxidation (Amplex Red) assay” value in experiment [1] was determined as 1000 pM. In experiment [2], the “IC50, inhibition of LPC hydrolysis by mouse ATX, coupled choline oxidation (Amplex Red) assay” value amounted to 300 pM. In addition, in experiment [3], the Kd worked out at 329 pM; the dissociation rate constant (koff) (usually the first-order rate constant of dissociation) came to 0.000292 s⁻¹; the kon (in general, the rate constant with which the complex forms) is 444000 M⁻¹ s⁻¹.

B2: mAb ATXB18 (antibody, V domains shown)
VH: QVQLVQSGAEVKKPGSSVKVSCKASGGTFSSYAISWVRQAPGQGLEWMGGIIPIFGTANYAQKFQGRVTITADESTSTAYMELSSLRSEDTAVYYCARDASTYGDLDYWGQGTLVTVSS
VL: DIQMTQSPSSLSASVGDRVTITCRASQSIDGWLNWYQQKPGKAPKLLIYAASSLQSGVPSRFSGSGSGTDFTLTISSLQPEDFATYYCQQSYSTPLTFGQGTKVEIK
notes: Human IgG1/kappa from Fab F97
For B2, in experiment [4], the Kd came to 673 pM, the koff came out at 0.000614 s⁻¹ and the kon turned out to be 949000 M⁻¹ s⁻¹.

B3: mAb ATXB7 (antibody, V domains shown)
VH: QVQLVQSGAEVKKPGSSVKVSCKASGGTFSSYAISWVRQAPGQGLEWMGGIIPIFGTANYAQKFQGRVTITADESTSTAYMELSSLRSEDTAVYYCARPIGTGYYGFFDYWGQGTLVTVSS
VL: DIQMTQSPSSLSASVGDRVTITCRASQSIAKWLNWYQQKPGKAPKLLIYFASSLQSGVPSRFSGSGSGTDFTLTISSLQPEDFATYYCQQSYSTPLTFGQGTKVEIK
In the case of B3, the “IC50, inhibition of LPC hydrolysis by human ATX beta (1.5 nM), coupled choline oxidation (Amplex Red) assay” value in experiment [1] was found to be 158000 pM. Further, the “IC50, inhibition of LPC hydrolysis by mouse ATX, coupled choline oxidation (Amplex Red) assay” value in experiment [2] worked out at 217000 pM.

B4: mAb ATXB8 (antibody, V domains shown)
VH: QVQLVQSGAEVKKPGSSVKVSCKASGGTFSSYAISWVRQAPGQGLEWMGGIIPIFGTANYAQKFQGRVTITADESTSTAYMELSSLRSEDTAVYYCARDSSAYGDFDYWGQGTLVTVSS
VL: DIQMTQSPSSLSASVGDRVTITCRASQSIDGWLNWYQQKPGKAPKLLIYAASSLQSGVPSRFSGSGSGTDFTLTISSLQPEDFATYYCQQSYSTPLTFGQGTKVEIK
notes: Human IgG1/kappa from Fab F96
Turning to B4, in experiment [1], the “IC50, inhibition of LPC hydrolysis by human ATX beta (1.5 nM), coupled choline oxidation (Amplex Red) assay” value came to 700 pM. In addition, the “IC50, inhibition of LPC hydrolysis by mouse ATX, coupled choline oxidation (Amplex Red) assay” value in experiment [2] was 800 pM. In experiment [3], the Kd turned out to be 1770 pM, the koff turned out to be 0.000883 s⁻¹ and the kon amounted to 249000 M⁻¹ s⁻¹.

B5: mAb ATXB14 (antibody, V domains shown)
VH: QVQLVQSGAEVKKPGSSVKVSCKASGGTFSSYAISWVRQAPGQGLEWMGGIIPIFGNTNYAQKFQGRVTITADESTSTAYMELSSLRSEDTAVYYCARDISGYGDLDYWGQGTLVTVSS
VL: DIQMTQSPSSLSASVGDRVTITCRASQSIDGWLNWYQQKPGKAPKLLIYAASSLQSGVPSRFSGSGSGTDFTLTISSLQPEDFATYYCQQSYSTPLTFGQGTKVEIK
notes: Human IgG1/kappa from Fab F104
B5: the “IC50, inhibition of LPC hydrolysis by human ATX beta (1.5 nM), coupled choline oxidation (Amplex Red) assay” value in experiment [1] worked out at 800 pM. For the same molecule, the “IC50, inhibition of LPC hydrolysis by mouse ATX, coupled choline oxidation (Amplex Red) assay” value in experiment [2] came to 1500 pM. Also, in experiment [3], the Kd amounted to 369 pM, the koff was found to be 0.000583 s⁻¹ and the on-rate (kon) came to 789000 M⁻¹ s⁻¹.

B6: mAb ATXB13 (antibody, V domains shown)
VH: QVQLVQSGAEVKKPGSSVKVSCKASGGTFSSYAISWVRQAPGQGLEWMGGIIPIFGTANYAQKFQGRVTITADESTSTAYMELSSLRSEDTAVYYCARDFSVYGDFDYWGQGTLVTVSS
VL: DIQMTQSPSSLSASVGDRVTITCRASQSIAKWLNWYQQKPGKAPKLLIYAASSLQSGVPSRFSGSGSGTDFTLTISSLQPEDFATYYCQQSYSTPLTFGQGTKVEIK
notes: Human IgG1/kappa from Fab F143
With B6, in experiment [1], the “IC50, inhibition of LPC hydrolysis by human ATX beta (1.5 nM), coupled choline oxidation (Amplex Red) assay” value is 1000 pM. For the same molecule, the “IC50, inhibition of LPC hydrolysis by mouse ATX, coupled choline oxidation (Amplex Red) assay” value in experiment [2] was determined as 500 pM. Moreover, in experiment [3], the Kd is 600 pM, the off-rate constant (koff) came out at 0.000329 s⁻¹ and the on-rate (kon) is 274000 M⁻¹ s⁻¹.

B7: mAb ATXB9 (antibody, V domains shown)
VH: QVQLVQSGAEVKKPGSSVKVSCKASGGTFSSYAISWVRQAPGQGLEWMGGISPYFGNANYAQKFQGRVTITADESTSTAYMELSSLRSEDTAVYYCARYGDFGGNVFTEFDYWGQGTLVTVSS
VL: EIVLTQSPGTLSLSPGERATLSCRASQSVNNSDLAWYQQKPGQAPRLLIYTASSRATGIPDRFSGSGSGTDFTLTISRLEPEDFAVYYCQQATTVPLTFGQGTKVEIK
notes: Human IgG1/kappa from Fab F89
Consider B7, for which, in experiment [1], the “IC50, inhibition of LPC hydrolysis by human ATX beta (1.5 nM), coupled choline oxidation (Amplex Red) assay” value is 14500 pM. Moreover, the “IC50, inhibition of LPC hydrolysis by mouse ATX, coupled choline oxidation (Amplex Red) assay” value in experiment [2] was 9300 pM. In experiment [3], the Kd worked out at 47800 pM, the off-rate (koff) is 0.000322 s⁻¹ and the on-rate constant (kon) is 3370 M⁻¹ s⁻¹.

B8: mAb ATXB3 (antibody, V domains shown)
VH: EVQLVQSGAEVKKPGESLKISCKGSGYSFTSYWIGWVRQMPGKGLEWMGIIYPGDSDTRYSPSFQGQVTISADKSISTAYLQWSSLKASDTAMYYCARPYGTFDYWGQGTLVTVSS
VL: EIVLTQSPATLSLSPGERATLSCRASQSVADSLAWYQQKPGQAPRLLIYKASNRATGIPARFSGSGSGTDFTLTISSLEPEDFAVYYCQQSNGWPRTFGQGTKVEIK
notes: Human IgG1/kappa from Fab F17
For B8, in experiment [3], the Kd stood at 715 pM, the off-rate constant (koff) was 0.000303 s⁻¹ and the kon stood at 212000 M⁻¹ s⁻¹.

The values above are taken from patent publication US20150087812A1 (Janssen / Centocor, published 2015).
